We go through ten sequences from the DeepSol protein solubility set.

The nature of this data set: soluble on expression in E. coli; label from the status in PepcDB or PDB records.
Take “GPGSMTTQNGVNYSQREVVHRMPDWVANRRASVNRGHVAPPLTADGMNPRKASFSGSNGEKQGAVYNNYTERVSSRSGGDRIFSFDNRSTSRRESGTNVSVRSLQPVAGRTAVTHTIRFRGARWSQALSNMSVALERAIKEDVAACCGISSERIGQMKMKFTDRLVVTFVLDHSHDPSEESRFHNQLKVYNFWRTVALYPRK”: the “soluble on expression in E. coli” value is recorded as “soluble”. As to IPTKFVQKVTITKEGKKRVAPQLLTTLSA, the “soluble on expression in E. coli” value is given as “soluble”. Consider “MGSDKIHHHHHHADMDGSQNKETENKEIKIILEAETSSQNIFAPIVFYQSFDFGKDAPCLSEVYDSIVWKSSHSPNSFKVFSHSNYARYVETTFFKWAHVYYSPGTYKTYLLGYKNNEIIYSSDTISIDITNKKDFLAFNWKDVTDSDFTTGYANNLDGYYLSTQTHIHQGVPSVMLYAKNEKYEKGGSMKSKQILYNYINSFFSLPNYTATSDESLRKEFSTIFSFQEENAIPLNIWLTPKAKIVLLRKDFKGLESEYKIYAEPGDLI”, for which the “soluble on expression in E. coli” value is “not soluble”. For “VPLPVPDFTASPMTISVGESVQFQDQTTNNPTNWEWTFEGGQPAMSTEQNPLVSYSHPGQYDVTLKVWNASGSNTITKEKFITVNAVMPVAEFVGTPTEIEEGQTVSFQNQSTNATNYVWIFDGGTPATSEDENPTVLYSKAGQYDVTLKAISASGETVKTKEKYITVKKAPVPA”, the “soluble on expression in E. coli” value was “not soluble”.

For “MAHHHHHHMATNPDIETDIPRDVYQFFRGLNRAVERRDAAAMHDLYESQFDALTKNYYMAGHGQFRSWPALRLEQVSSCFRGNHMAELVYSFLFYKHLFMDNRSVRAPDAEGAWKTYSELLPMLKSYELPNWMLWDIFDEFLYQMTVVYQKVFVTEGIWAVPEVSRLLNEVIDNSRLLELVKQPDFLEDIHRGPNTGALSGFYAIVTKSKLNVLLGDYYSALTDLEPLDVYNKGRAVLTRVSPCAVSVFYHIGFSYLMIHRFEDASNAFRRCVTVKLNGRRFSERVQQDAAYMYVCARVLGGMPINNLTSYLDSRKVAAFEDDRESLRTGDEERFRDVFDRCSPKFLTVPPSDGSPVKGSEGRELQARMFRRAVQQQQDIIKLRGYFKVYQNTKMNLLETLLEVDDGYAPLFALKMRSRQLVHDGVTADLLQGVFTSSSEFDCIVQDDNVEVVPSMTFGGIEQKLLNKIKNTQRDIEVAKRKFNQTRNRDEGGNKRKDQRDQKRRPNQQQLHGGVGNNAGSANRSSNNVNRHPRQKMAAQPMTSNLFNRNDN”, the “soluble on expression in E. coli” value is “soluble”. In the case of “MSIEQYFQHLACAPTSLNLIWFTVEMSELAKELPSKEAKTGLIKSIAHILHDEKFEKIRGDEAMLNLFEMLAKCSTKIGGAEVYKQAYGLDLFNYYKEFYFQWAHECGKIKSVSQFRTVFFLARSQLFYHLSPISIEKDFENIFQQYFGKLSMHHCLERTETLNKLFAGCSVEEFASAENVMSFGNSRELSGRSVDVRPNHRVLEVARGTMMSSSEISPNKSDSSVLLNKSPPTNSPIIKFGTYPKIHLQNVSSSMLNARRRQLTATVTTVDSQKGKPTFANETY” it was “not soluble”; in that of “MHGITIDSGRALDMLASMIEEAEQQYQAHMRETPHYEPASAGEGFVAYGESINSLFQLLHQRNAQRLELIKLGLEDARQRVHDLSNTDTEFAARLGAVE”, “not soluble”. As for “MNKKQRDEISKLLSYVLRHAPESMGLTLDRDGWCEVDELVGKANANGHSFDRQALEEVVETNEKKRFTLSEDGQRIRAAQGHSTEQVQVQHIEKEPPAWLYHGTASRFMASIETQGLIAGSRHHVHLTEDPETALSVGKRYGQPVLLAVDAKGMFEAGVQFFQADNGVWLVEAVPIEWLTKVADTVSLEHHHHHH”, the “soluble on expression in E. coli” value was “soluble”.

Consider “MSLQIEFREFNPFDCWIWVEFSTVPAPLEQQYLEELFDSWFFLGKLGGFNAENLQAQEEGLELSYMSYQSAQERSSLAALMHNMGEVEYQGRWARCWFDLGTSDAIALDVLLNALQRLSEEMVGLEQVFVGGENADWPSPGRRSLDFAADEGHHHHHH”, for which the “soluble on expression in E. coli” value is reported as “soluble”. As to “EPGSSEGLGLLNVHTVLTGSKQLTKTEAVLNLNNQKAKVKGYEIHVGRSQVLDEQPLELDNGECDGAISECGQIMGTYLHGFFDEAEALNLITEWVNGTQVKQQDFEVLKEQGINRIADAIEQHMNLDFLFK”, the “soluble on expression in E. coli” value is given as “not soluble”.
